From patent US7778779

Molecular target: T1, 19-residue peptide comprising amino acids 788-806 of human HIF-1α, Q16665
T1 chain: DESGLPQLTSYDCEVNAPI

B1: FIH (Factor Inhibiting HIF), human (protein)
chain: MAATAAEAVASGSGEPREEAGALGPAWDESQLRSYSFPTRPIPRLSQSDPRAEELIENEEPVVLTDTNLVYPALKWDLEYLQENIGNGDFSVYSASTHKFLYYDEKKMANFQNFKPRSNREEMKFHEFVEKLQDIQQRGGEERLYLQQTLNDTVGRKIVMDFLGFNWNWINKQQGKRGWGQLTSNLLLIGMEGNVTPAHYDEQQNFFAQIKGYKRCILFPPDQFECLYPYPVHHPCDRQSQVDFDNPDYERFPNFQNVVGYETVVGPGDVLYIPMYWWHHIESLLNGGITITVNFWYKGAPTPKRIEYPLKAHQKVAIMRNIEKMLGEALGNPQEVGPLLNTMIKGRYN
hydroxylation of the peptide (mass spectrometry of HPLC purified material): a mass difference of +8Da of the doubly charged ions, corresponding to +16Da in the peptide (oxygen)
